This passage reports reverse-splicing fitness results from the RNAGym collection of RNA variant scans (doi:10.1093/molbev/msab373).

B1: Azoarcus group I ribozyme (parent)
chain: GUGCCUUGCGCCGGGAAACCACGCAAGGGAUGGUGUCAAAUUCGGCGAAACCUAAGCGCCCGCCCGGGCGUAUGGCAACGCCGAGCCAAGCUUCGGCGCCUGCGCCGAUGAAGGUGUAGAGACUAGACGGCACCCACCUAAGGCAAACGCUAUGGUGAAGGCAUAGUCCAGGGAGUGGCGAAAGUCACACAAACCGG

In the data set the parent is B1. Put plainly: reverse-splicing fitness (ratio to wild type); higher = more active; in vitro selection; Mg2+ level not given. The method, boiled down:
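An in vitro group I ribozyme library with randomized positions was T7-transcribed and gel-purified. In triplicate, 10 pmol RNA in EPPS pH 7.5 was reacted with 50 pmoles of a 30-nt RNA substrate for 1 h at 37 °C across several added MgCl2 levels (1–48 mM), then stopped with EDTA. Products were reverse transcribed from a substrate-complementary primer, PCR-amplified and sequenced (HiSeq 4000). Fitness is a variant's read proportion after selection over that before, normalised to wild type.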
In the case of GUGCCUUGCGCCGGGAAACCACGCAAGGGAUGGUGUCAAAUUCGGCGAAACCUAAGCGCCCGCCCGGGCGUAUGGCAACGCCGAGCCAAGCUUCGGCGCCUGCGCCGAUGUAGGUGUAGCGACUAGACGGCACCCACCUAAGGCUAACGAUAUGGUGAAGGCAUAGUCUAGGGAGAGGCGAAAGUCACACAAACCGG, the reverse-splicing fitness was 0.0185.

Regarding GUGCCUUGCGCCGGGAAACCACGCAAGGGAUGGUGUCAAAUUCGGCGAAACCUAAGCGCCCGCCCGGGCGUAUGGCAACGCCGAGCCAAGCUUCGGCGCCUGCGCCGAUGGAGGUGUAGAGACUAGACGGCACCCACCUAAGGCUAACGAUAUGGUGAAGGCAUAGUCGAGGGAGAGGCGAAAGUCACACAAACCGG, the reverse-splicing fitness worked out at 0.014.

GUGCCUUGCGCCGGGAAACCACGCAAGGGAUGGUGUCAAAUUCGGCGAAACCUAAGCGCCCGCCCGGGCGUAUGGCAACGCAGAGCCAAGCUUCGGCGCCUGCGCCGAUGAAGGUGUAGUGACUAGACGGCACCCACCUAAGGCAAACGAUAUGGUGAAGGCAUAGUCGAGGGAGUGGCGAAAGUCACACAAACCGG: the reverse-splicing fitness stood at 0.00417.

Take GUGCCUUGCGCCGGGAAACCACGCAAGGGAUGGUGUCAAAUUCGGCGAAACCUAAGCGCCCGCCCGGGCGUAUGGCAACGCCGAGCCAAGCUUCGGCGCCUGCGCCGAUGCAGGUGUAGGGACUAGACGGCACCCACCUAAGGCAAACGGUAUGGUGAAGGCAUAGUCCAGGGAGGGGCGAAAGUCACACAAACCGG: the reverse-splicing fitness turned out to be 0.00348.

For the variant GUGCCUUGCGCCGGGAAACCACGCAAGGGAUGGUGUCAAAUUCGGCGAAACCUAAGCGCCCGCCCGGGCGUAUGGCAACGCGGAGCCAAGCUUCGGCGCCUGCGCCGAUGGAGGUGUAGCGACUAGACGGCACCCACCUAAGGCAAACGUUAUGGUGAAGGCAUAGUCAAGGGAGAGGCGAAAGUCACACAAACCGG, the reverse-splicing fitness turned out to be 0.0199.

Regarding GUGCCUUGCGCCGGGAAACCACGCAAGGGAUGGUGUCAAAUUCGGCGAAACCUAAGCGCCCGCCCGGGCGUAUGGCAACGCGGAGCCAAGCUUCGGCGCCUGCGCCGAUGUAGGUGUAGGGACUAGACGGCACCCACCUAAGGCAAACGAUAUGGUGAAGGCAUAGUCAAGGGAGGGGCGAAAGUCACACAAACCGG, the reverse-splicing fitness was 0.00601.

As to GUGCCUUGCGCCGGGAAACCACGCAAGGGAUGGUGUCAAAUUCGGCGAAACCUAAGCGCCCGCCCGGGCGUAUGGCAACGCUGAGCCAAGCUUCGGCGCCUGCGCCGAUGGAGGUGUAGCGACUAGACGGCACCCACCUAAGGCGAACGCUAUGGUGAAGGCAUAGUCGAGGGAGGGGCGAAAGUCACACAAACCGG, the reverse-splicing fitness amounted to 0.00407.

In the case of GUGCCUUGCGCCGGGAAACCACGCAAGGGAUGGUGUCAAAUUCGGCGAAACCUAAGCGCCCGCCCGGGCGUAUGGCAACGCAGAGCCAAGCUUCGGCGCCUGCGCCGAUGUAGGUGUAGCGACUAGACGGCACCCACCUAAGGCUAACGAUAUGGUGAAGGCAUAGUCCAGGGAGGGGCGAAAGUCACACAAACCGG, the reverse-splicing fitness was 0.00762.

In the case of GUGCCUUGCGCCGGGAAACCACGCAAGGGAUGGUGUCAAAUUCGGCGAAACCUAAGCGCCCGCCCGGGCGUAUGGCAACGCAGAGCCAAGCUUCGGCGCCUGCGCCGAUGCAGGUGUAGUGACUAGACGGCACCCACCUAAGGCCAACGUUAUGGUGAAGGCAUAGUCCAGGGAGCGGCGAAAGUCACACAAACCGG, the reverse-splicing fitness was determined as 0.00525.

Consider GUGCCUUGCGCCGGGAAACCACGCAAGGGAUGGUGUCAAAUUCGGCGAAACCUAAGCGCCCGCCCGGGCGUAUGGCAACGCUGAGCCAAGCUUCGGCGCCUGCGCCGAUGGAGGUGUAGUGACUAGACGGCACCCACCUAAGGCCAACGAUAUGGUGAAGGCAUAGUCCAGGGAGUGGCGAAAGUCACACAAACCGG, for which the reverse-splicing fitness is 0.00504.

Turning to GUGCCUUGCGCCGGGAAACCACGCAAGGGAUGGUGUCAAAUUCGGCGAAACCUAAGCGCCCGCCCGGGCGUAUGGCAACGCAGAGCCAAGCUUCGGCGCCUGCGCCGAUGUAGGUGUAGCGACUAGACGGCACCCACCUAAGGCUAACGUUAUGGUGAAGGCAUAGUCGAGGGAGCGGCGAAAGUCACACAAACCGG, the reverse-splicing fitness came out at 0.0244.

With GUGCCUUGCGCCGGGAAACCACGCAAGGGAUGGUGUCAAAUUCGGCGAAACCUAAGCGCCCGCCCGGGCGUAUGGCAACGCAGAGCCAAGCUUCGGCGCCUGCGCCGAUGUAGGUGUAGAGACUAGACGGCACCCACCUAAGGCUAACGGUAUGGUGAAGGCAUAGUCUAGGGAGGGGCGAAAGUCACACAAACCGG, the reverse-splicing fitness was found to be 0.00727.

Consider GUGCCUUGCGCCGGGAAACCACGCAAGGGAUGGUGUCAAAUUCGGCGAAACCUAAGCGCCCGCCCGGGCGUAUGGCAACGCUGAGCCAAGCUUCGGCGCCUGCGCCGAUGAAGGUGUAGGGACUAGACGGCACCCACCUAAGGCCAACGGUAUGGUGAAGGCAUAGUCUAGGGAGAGGCGAAAGUCACACAAACCGG, for which the reverse-splicing fitness came out at 0.0158.

Consider GUGCCUUGCGCCGGGAAACCACGCAAGGGAUGGUGUCAAAUUCGGCGAAACCUAAGCGCCCGCCCGGGCGUAUGGCAACGCCGAGCCAAGCUUCGGCGCCUGCGCCGAUGUAGGUGUAGCGACUAGACGGCACCCACCUAAGGCAAACGAUAUGGUGAAGGCAUAGUCAAGGGAGAGGCGAAAGUCACACAAACCGG, for which the reverse-splicing fitness was 0.0178.

As for GUGCCUUGCGCCGGGAAACCACGCAAGGGAUGGUGUCAAAUUCGGCGAAACCUAAGCGCCCGCCCGGGCGUAUGGCAACGCAGAGCCAAGCUUCGGCGCCUGCGCCGAUGGAGGUGUAGGGACUAGACGGCACCCACCUAAGGCCAACGGUAUGGUGAAGGCAUAGUCGAGGGAGGGGCGAAAGUCACACAAACCGG, the reverse-splicing fitness turned out to be 0.0049.
